Data as given in PMC8109800.

What was measured:
[1] = tested on: Chl1 full-length (Chaetomium thermophilum); assay: fluorescence anisotropy; conditions: no plateau reached, low affinity; 50 mM HEPES pH 8.0, 50 mM NaCl, 0.5 mM TCEP, 25 C; 10 nM FAM-DNA; quadratic fit
[2] = tested on: MiniChl1V2 (Chaetomium thermophilum); assay: fluorescence anisotropy; conditions: 50 mM HEPES pH 8.0, 50 mM NaCl, 0.5 mM TCEP, 25 C; 10 nM FAM-DNA; quadratic fit

22-mer ssDNA gave a Kd [1] greater than 1000 nM and a Kd [2] of 38 nM.
